Experimental data: the nanobody polyreactivity screen of Harvey et al. (2022)

Experiment: yeast display, Sf9 membrane polyspecificity reagent, FACS + sequencing; frameworks hold sequencing errors
Summary of the method: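 Polyreactivity labels are assigned by the sorting gate from which each nanobody was recovered. The gates were low and high (top ~1%), set on anti-HA fluorescence for expression and streptavidin fluorescence for reagent binding. Before sorting, galactose-induced (36–48 hours) yeast display cells were stained for 1 hour at 4 °C with 10% biotinylated, detergent-solubilized Sf9 membrane reagent.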

Sequence | polyreactivity (PSR sort gate)
QVQLEESGGGLVQAGGSLRLSCAASGRSFNHNAMGWYRQAPGKERELVAAINQSGSSTYYADSVKGRFTISRDNAKNTVYLQMNSLKREDTAVYYCAAVCNGVDYEYWGQGTQVTVSS | low polyreactivity
QVQLVESGGGLVQAGGSLRLSCAASGFTFHNNVMGWYRQAPGKEMELVATISKSGGSTYYADSVKGRFTISRDNAKNTVYLQMNSLKPEDTAVYYCARSYRDYGRYGYWGQGTQVTVSS | high polyreactivity
QVQLVESGGGLVQAGGSLRLSCAASGLTFIYYAMGWYRQAPGKERELVAAISVSGGSTSYADSVKGRFTISRDNAKNTVYLQMNSLKPEDTAVYYCAADWFVHKPRYQYSFDYWGQGTQVTVSS | low polyreactivity
QVQLVESGGGLVQAGGSLRLSCAASGFIYSYAMGWYRQAPGKERELVAAISRSGGSTYYADSVKGRFTISRDNAKNTVYLQKNSLKPEDTAVYYCAALRRYPRDNIMYYYPYDYWGQGTQVTVSS | high polyreactivity
QVQLVESGGGLVQAGGSLRLICAASGIIFVPNAMGWYSQAPGKERELVAAIDRGGGTTYADSVKGRFTISRDNAKNTVYLQMNSLKPEDTAVYYCAAAWGVGPDQGHDYWGQGTQVTVSS | low polyreactivity
QVKLVESGGGLVQAGGSLRLSFAAYGSIFAWYGMGWYRQAPGKERELVAAISTAGSTNYADSVKGRFTISRDNAKNTVYLQMNSLKPEDTAVYYCAKKSSWYYQERFDYWGQGTQVTASS | low polyreactivity
QVQLEESGGGSVQAGGSLRISCAASGFTFFSYTMGWYRQAPGKERELVAAISKRGSRTYYADSVKGRFTISRDHAKNTVDLQMNSLKPEDTAVYYCAADAGPEVVHRREDYWGQVTQVTVSS | high polyreactivity
QVQLVESGGRLDQAGGSLRLSCAASGSILSTYAMGWYRQPPVKERELVASISSNAGSTYYADSVKGRFTISLDNAKNTVSLQMNSLKPEDTAVYYCNKVYGGGTYDYWGQGTQVTVSS | low polyreactivity
QVQLVESGGGLVQAGGSLRLSCAASRYTFTLYAMGWYRKAPGKEWELLAAISRSGGSTYYADSVKGRFTISRDNAKITVYLQMNSLKPEDTAVYYCAADKYFAWGYPSGLWYDYWGQGTQVTVSS | high polyreactivity
QVQLVESGGGLVQAGGSLRLSCAASGLIFNWNDMGWYRQAPGKERELVAAISGDGGITYYADSVKGRFTISRDNAKNTVFLQMNSLKPEDTAVYYCNAGFTWGDWYDYWGQGTQVTVSS | low polyreactivity
QVQLVESGGGLVQAGGSLRLSCAASGSIFWVYAMGWYRQAPGKEREFVATISTDGGSTHYADSVKGRFTISRDNAKNTFYLQMNSLKPEDTAVYYCAADTPWYDDNYDYWGQGTQVTVSS | low polyreactivity
QVQLVESGGGLVQAGGSLRLSCASSGSIFARYALGWYIQAPGKQRELVADINSTVSTNYADSVKGRFTISRDNAKNPVYLQMNSLKPEVTAVSYCAVDIVRGGRDSWGQGTQVTVSS | low polyreactivity
QVQLVESGGGLVQAGGSLRLSCAASGSTFVRNDMGWYRQAPGKERELVAAINGDGRTYYADSVKGRFTISRDNAKNTVYLQMNSLKPEDTAVYYCAADWKSSRSYSYEMDYWGQGTQVTVSS | low polyreactivity
QVQLVESGGGLVQAGGSLRLSCAASGFTFAPNAMGWYRQAPGKEREFVAVITYRSTSTFYADSVKGRFTISRDNAKNTVYLQMNSLKPEDTAVYYCNAKYLWYGRYNYWGQGTQVTVSS | high polyreactivity
QVQLVESGGGLVQARGSLRLSCASSGRTFYTYAMGWYRQAPGKERELVAAIRRVGSTNYADSVKGRFTISRDNAKNTGYLQMNSLKPEDTAVYYCAVRLVWPWQGYDYWGQGTQVTVSS | low polyreactivity
QVQLVESGGGLVQAGGSLRLSCAASGFIQDYYAMGWYRHAPGKERELDAAISSGGTDTYYADSVKGRFTVSRDTAKNTVYLQMNSLKPEDTAVYYFAADSYWSAYDYWGQGTQVTVSS | low polyreactivity
QVQLVESGGGLVQAGGSLRLSCAASGSTFRVYDMGWYRQAPGKERELVASLSYSVGSTYYADSVKGRFTISRDNAKNTVYLQMNSLKPEDTAVYYCAARPSYQPSSLARYDYWGQGTQVTVSS | low polyreactivity
QVQLVESGGGLVQAGGSLRLSCAASGSIFAFNAMGWYRQAPGKERELVAAMSGSGARTYYADSVKGRFTTSRDNAKNTVYLQLNSLKPEDTAVYYCARPYGYGYDYWGQGTQVTVSS | high polyreactivity
QVQLVESGGGLVQAGGSLRLSCAASGSTFHRNAMGWYRQAPGKERELVAAISWRGGSTYYADSVKGRFTISRDNAKNNVYLLMNSLKPEDTAVYYCNAVERYWDYGYWGQGTQVTVSS | low polyreactivity
QVHLVESGGGLVQAGGSLRLSCAASGRTVEGNAMGWYIQAPGKERELVAAITSGGRTNYADSVKGRFTISRDNAKNTVYLQMNSLKPVDTAVYYCAVETRDRSTDFPGQAYDYWGQGTQLTVSS | low polyreactivity
QVQLVESGGGLVQAGGSLRISCAASGSTFKRNVMGWYRQAPGKERELVAAISRTDGRTYYADSVKGRFTISRDNAKNSVYLEMNSLKPEDTAVYYCAATTGHRTYRYYYWGHGTQVTVSS | high polyreactivity
QVQLVESGGGLVQAGGSLRLSCAASGSIFDPYAMGWYRQAPGKERELVAAISWSDSSTYYADSVKGRFTISRDNEKNTVYLQMNSLKPEDTAVYYSAAPSRYRYYWGNYWGQGTQVTVSS | high polyreactivity

Sequence | polyreactivity (PSR sort gate)
QVQLVESVGGLVQAGGSLRLSCAASGSTFAGNAMGWSRQAPGKERELVAAIDSSTGSTYYADSVKGRFTISRDNAKNTVYLQMNSLKPEDTSVYYSNKTSFLVKLDYWGHGTQVTVSS | low polyreactivity
QVQLVESGGGLVQAGGSLRLSCAASGRIFYSYAMGWYRQAPGKERELVASITSSGGSTYADSVKGRFTISRDNAKNTVYLQMNSLKPEDTAVYYFDYWGQGTQVTVSS | low polyreactivity
QVQLVESGGGLVRAGGSLRISCAASGSIFDVNDMGWYRQAPGKERELVASISWNGGSPYYADSVKRRFTISRDNAKNTVYLQLNILNPEDTAVYYCNRSYRRPTSDLYDYWGQGTQVTVSS | low polyreactivity
QVQLVESGGGLVQAGGSLRLSCAASGSTLVYNGMVWYRQAPGKEREFVAAIRSNDGSTYYADSVKGRFTISRDNAKNTVYLQMNSLKPEDTAVYYCNNDVWDGYDWPEFDYWGQGTQVTVSS | low polyreactivity
QVQLVESGGGLVQAGGSLRLSCAASGRIFGRNAMGWYRQAPGKERELVAAISRRSVSTYYADSVKGRFTISRDIAKNTVYLQMNSLKPEETAVYYCAARKSLTTPYGYWGQGTQVTVSS | high polyreactivity
QVQLVESGGGLVQAGGSLRLSCAASGRIFGHYAMGWYRPAPGKERELVAAISTGGSTYYADSVKGRFTISRDNAKNTVYFQMNSLKPEDTAVYFCNKRPVRRKYDYWGQGTHVTVSS | low polyreactivity
QVQHVESGGGLDQAGGSLRLSCAASGSILTRYVMGWYRQAPGKERELVAAISQRGGSTYYADSVTGRFTISRDTAKYTVFLQMNSLKPEDTAVYYCAAETRVTSRRRFDYWGQGTQVTVSS | high polyreactivity
QVQLVESGGGLVQAGGSLRLSCAASGRIFGHYAMGWYRQAPGKERELVAAINWRGGSTYYADSVKGRFTISRDNAKNTVYLQMNSLKPEDTAVYYCAAANFRSYLSQTGPRAYYYWGQGTQVTVSS | low polyreactivity
QFQLVESGGGLVQAGGSLRLSCAASGITIRWYAMGWYRQAPGKERELVAGISSRGDSTYYADSVKGRFTISRDNAKNTVYLQMNSLKREDTAVYYCAAPGSSYRGRGYDYWGQGTQVTVSS | high polyreactivity
QVQLVESGGGLVQAGGSLRLSCAASGIIFRDNDMGWYRQAPGKERELVASISDSGGSTYYADSVKGRFTISRDNAKNTVYLQMNSLKPEDTAVYYCAAPYLSLYWYDYWGQGTQVTVSS | low polyreactivity
QVQLVESGVGLVQAGGSLRLSCAASGYTFAYNAMGWYRPAPGKERELVAAITSRAGSTHYADSVKGRFTISRDNAKNTVYLQMNSLKPEDTAVYYCAAKRYNRLRSYRYSDREDYWGQGTQVTVSS | high polyreactivity
QVQLVESGGGFVQAGGSLRLSCAASGSTFAYYAMGWDRQAPGKERELVAAITRGGRTYYADSVKGRFTISRDNPKNTVYLQMNSQKPDDTAVYYCNARKYTWYSSRFIRFDYWGQGTQVTVSS | high polyreactivity
QVQHVESGGGLVQAGGSLRLSCAASGSTIRYYTMGWYRQPPGKERELVAAITYSGGSTYYADSVKGRFTISRDNAKNTVYLQKNSLKPEDTAVYYCAKRWSQPKYDYWGQGTQVTVSS | high polyreactivity
QVQLVESGGGLVQAGGSLRLSCAASGSIFPHNAMGWYRPAPGKERELVAAISSGGSTNYADSVKGRFTISRDNANNTVYLQLNSLKPEDTAVYYCAKSIDGWYWRRRRYDYWGQGTQVTVSS | low polyreactivity
QVQLQESGGGLVQAGGTLRLSCQASGSIFVSVTMGWYRQAPGKERELVASIGRGSTTNHADSVKGRFTISRDNAKNIVYLLMNSLKPEDTAVYYCAALESYGKYHGYWGQGTQVTVSS | low polyreactivity
QDQLVDSCGGLVQARGSLRLSCAASGSIFGDYAMGWYRQAPGKEWELVAAISDTDSTNDADSVKGRFTISRDNAKNTVYLQMNSLKREDTAVYSCNGDTWGYLLGYYYYKFAYCGQGTQVTVSS | low polyreactivity
QVQLVESGGGLVQAGGSLRLSCAASGYICVRYAMGWYRQAPGKEREFVAAISSSGGSTRYADSVKGRFTISRDNAKNTVYLQMNSLKPEDTAVYYCAATRVARHGSPMYYWGQGTQVTVSS | high polyreactivity
QVLLVESGGGLVQAGGSLRLSSAASGSIFVCNAMGWYRQAPGKERELVAAIRGVDSTYYGDSVKGRFTISRDNGKNTFFLQMNSLKPEDTAFYYCATLGPGFPRYYDWGQGTQVTVSS | high polyreactivity
QVQLVESGGGLVQAGGSLRLSCAASGIIFVYYTMGWYRQAPGKERELVAAITSGGSTYYADSVKGRFTISRDNAKNTVYVQMNSLKPEDTAVYYCAAVGRPPYAGDRGYWGQGTQVTVSS | high polyreactivity
QVQLVESGGGLVQAGGSLRLSCAASGIIFYYNAMGWYRQAPGKERELVAAISSSGGSTSYADSVKGRFTISRDNAKNTVFLQMNSLKPEDTAVYYCAADSYPAYLGFVGFDYWGQGTQVTVSS | low polyreactivity
QVQLVDSGGGLVQAGGSLRLSCAASGRIFPYYAMGWYRQAPGKERELVAAISSGGSTKYADSVKGRFTISRDNAKNTVYLQMNSLKPEDTAVYYCAKDPFPWALFDYWGQGTLVTVSS | low polyreactivity
